The values below come from publication PMC13426413 (Science Advances, 2026).

The test concerns the target human Hsp90α (residues 1–732) (human, UniProt P07900 1-732). The test can be described thus: ITC. For orientation: In ITC the heat of successive injections is recorded.

B1: Tom70:Orf9b_(Helix) complex (complex)
chain 1: MNSLDRAQAAKNKGNKYFKAGKYEQAIQCYTEAISLCPTEKNVDLSTFYQNRAAAFEQLQKWKEVAQDCTKAVELNPKYVKALFRRAKAHEKLDNKKECLEDVTAVCILEGFQNQQSMLLADKVLKLLGKEKAKEKYKNREPLMPSPQFIKSYFSSFTDDIISQPMLKGEKSDEDKDKEGEALEVKENSGYLKAKQYMEEENYDKIISECSKEIDAEGKYMAEALLLRATFYLLIGNANAAKPDLDKVISLKEANVKLRANALIKRGSMYMQQQQPLLSTQDFNMAADIDPQNADVYHHRGQLKILLDQVEEAVADFDECIRLRPESALAQAQKCFALYRQAYTGNNSSQIQAAMKGFEEVIKKFPRCAEGYALYAQALTDQQQFGKADEMYDKCIDLEPDNATTYVHKGLLQLQWKQDLDRGLELISKAIEIDNKCDFAYETMGTIEVQRGNMEKAIDMFNKAINLAKSEMEMAHLYSLCDAAHAQTEVAKKYGLKPPTL
chain 2: IILRLGSPLSLNMARKTLNSLEDKAFQLTPIAVQY
On to B1, for which the binding result is given as “binds”.
